Test results reported in PMC3354570 (Structure(London, England:1993), 2012).

Target: the molecule itself
Assay: AUC

B1: human apolipoprotein A-IV core domain, residues 64-335 (domain or fragment, UniProt P06727 84-355, looked up)
chain: ATELHERLAKDSEKLKEEIGKELEELRARLLPHANEVSQKIGDNLRELQQRLEPYADQLRTQVSTQAEQLRRQLTPYAQRMERVLRENADSLQASLRPHADELKAKIDQNVEELKGRLTPYADEFKVKIDQTVEELRRSLAPYAQDTQEKLNHQLEGLTFQMKKNAEELKARISASAEELRQRLAPLAEDVRGNLRGNTEGLQKSLAELGGHLDQQVEEFRRRVEPYGENFNKALVQQMEQLRQKLGPHAGDVEGHLSFLEKDLRDKVNSFF
Question: B1 was tested. Which “stoichiometry N” value did it give?
Answer: 2
